# Experimental data from article PMC2856898 (The Journal of Cell Biology, 2010).
# T1: His6-Dsn1 (subunit of the recombinant Mis12 complex) (human, UniProt Q9H410 1-356)
# T1 sequence (looked up): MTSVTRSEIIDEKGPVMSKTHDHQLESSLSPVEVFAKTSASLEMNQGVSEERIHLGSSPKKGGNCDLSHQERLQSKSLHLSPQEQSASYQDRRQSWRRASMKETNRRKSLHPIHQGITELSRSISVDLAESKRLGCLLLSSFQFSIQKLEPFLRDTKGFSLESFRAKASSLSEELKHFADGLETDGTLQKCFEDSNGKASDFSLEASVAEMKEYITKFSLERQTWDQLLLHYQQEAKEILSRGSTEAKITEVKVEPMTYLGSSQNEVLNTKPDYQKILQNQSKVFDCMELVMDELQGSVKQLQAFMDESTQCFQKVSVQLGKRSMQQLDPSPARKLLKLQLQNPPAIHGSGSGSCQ
# B1: Mis12 (subunit of the recombinant Mis12 complex) (natural protein, human, UniProt Q9H081 1-205, looked up)
# chain: MSVDPMTYEAQFFGFTPQTCMLRIYIAFQDYLFEVMQAVEQVILKKLDGIPDCDISPVQIRKCTEKFLCFMKGHFDNLFSKMEQLFLQLILRIPSNILLPEDKCKETPYSEEDFQHLQKEIEQLQEKYKTELCTKQALLAELEEQKIVQAKLKQTLTFFDELHNVGRDHGTSDFRESLVSLVQNSRKLQNIRDNVEKESKRLKIS
# B2: Nsl1 (subunit of the recombinant Mis12 complex) (natural protein, human, UniProt Q96IY1 1-281, looked up)
# chain: MAGSPELVVLDPPWDKELAAGTESQALVSATPREDFRVRCTSKRAVTEMLQLCGRFVQKLGDALPEEIREPALRDAQWTFESAVQENISINGQAWQEASDNCFMDSDIKVLEDQFDEIIVDIATKRKQYPRKILECVIKTIKAKQEILKQYHPVVHPLDLKYDPDPAPHMENLKCRGETVAKEISEAMKSLPALIEQGEGFSQVLRMQPVIHLQRIHQEVFSSCHRKPDAKPENFITQIETTPTETASRKTSDMVLKRKQTKDCPQRKWYPLRPKKINLDT
# B3: Nnf1 (subunit of the recombinant Mis12 complex) (natural protein, human, UniProt Q6P1K2 1-205, looked up)
# chain: MAEASSANLGSGCEEKRHEGSSSESVPPGTTISRVKLLDTMVDTFLQKLVAAGSYQRFTDCYKCFYQLQPAMTQQIYDKFIAQLQTSIREEISDIKEEGNLEAVLNALDKIVEEGKVRKEPAWRPSGIPEKDLHSVMAPYFLQQRDTLRRHVQKQEAENQQLADAVLAGRRQVEELQLQVQAQQQAWQALHREQRELVAVLREPE
# Target: T1, His6-Dsn1 (subunit of the recombinant …)
# Assay: co-sedimentation
row,binding result,Binder
1,binds,B1
2,binds,B2
3,binds,B3
